According to US10253344B2, “Recombinant production of steviol glycosides” (Conagen Inc., priority 2013, dated 2019):

Legend:
Type in all cases: biochemical
[1] = in vitro conversion of rebaudioside A to rebaudioside D by recombinant HV1 polypeptide, with or without AtSUS1
Protocol: (§1) The purified candidate UGT recombinant polypeptides were assayed for 1,2-19-O-glucose glycosylation activity by using stevioside or Reb A as the substrate (FIGS. 1A-1C). Typically, the recombinant polypeptide (10 μg) was tested in a 200 μl in vitro reaction system. The reaction system contains 50 mM potassium phosphate buffer, pH 7.2, 3 mM MgCl2, 1 mg/ml stevioside or rebaudioside A, 1 mM UDP-glucose. The reaction was performed at 30° C. and terminated by adding 200 μL 1-butanol. The samples were extracted three times with 200 μL 1-butanol. The pooled fraction was dried and dissolved in 70 μL 80% methanol for high-performance liquid chromatography (HPLC) analysis. Stevia extract (Blue California, Calif.), containing 95% stevioside, was used as stevioside substrate. Rebaudioside A (purity 99%) was also supplied by Blue California.
(§2) The UGT catalyzed glycosylation reaction was be coupled to a UDP-glucose generating reaction catalyzed by a sucrose synthase (such as AtSUS1 of SEQ ID NO:9). […] The purified recombinant AtSUS1 polypeptide was analyzed by SDS-PAGE (molecular weight: 106.3 kD, FIG. 7). […]
(§3) HPLC analysis was then performed using a Dionex UPLC ultimate 3000 system (Sunnyvale, Calif.), including a quaternary pump, a temperature controlled column compartment, an auto sampler and a UV absorbance detector. […]

[2] = in vitro conversion of Reb E to Reb Z by recombinant HV1 polypeptide and AtSUS1; settings: Reb E 0.5 mg/ml, HV1 20 μg and AtSUS1 20 μg, 24 hours
Protocol: An unexpected compound (“Reb Z”) having a HPLC retention time 6.68 minute (see, FIG. 4) that was distinctive from rebaudiosides D and E was produced. This compound represents a novel steviol glycoside, and is termed “rebaudioside Z” (“Reb Z”). To confirm the conversion of Reb E to Reb Z, Reb E substrate (0.5 mg/ml) was incubated with the recombinant HV1 polypeptide (20 μg) and AtSUS1 (20 μg) in a UGT-SUS coupling reaction system ([…]) under conditions similar to those used in the examples above.

[3] = in vitro conversion of stevioside by recombinant HV1 polypeptide in UGT-SUS coupling reaction system
Protocol: as §1, with “Stevia extract (Blue California, Calif.), containing 95% stevioside, was used as stevioside substrate. Rebaudioside A (purity 99%) was also supplied by Blue California.” left out
as §2, §3
Accordingly, the catalytic activity of the recombinant HV1 polypeptide for steviol glycoside biosynthesis (e.g., production of rebaudioside D) was further determined in combination with UGT76G1. […] The products were analyzed by HPLC.

[4] = enzymatic activity screening of candidate UGT polypeptides for 1,2-19-O-glucose glycosylation activity (in vitro reaction, HPLC); settings: stevioside or Reb A as substrate, 30° C.
Protocol: as §1, §2, §3

[5] = in vitro conversion of rebaudioside E to rebaudioside D by recombinant UGT76G1, with or without AtSUS1; settings: with or without AtSUS1, 6 hours
Protocol: Codon optimized UGT76G1 cDNA was inserted in a bacterial expression vector, and the recombinant UGT76G1 protein was expressed and purified by affinity chromatography. The purified recombinant UGT76G1 polypeptide was analyzed by SDS-PAGE (molecular weight: 65.4 kD, FIG. 9). The rebaudioside E substrate was incubated with the recombinant UGT76G1, with or without AtSUS1, under conditions similar to those used in the Examples above. The products were analyzed by HPLC. […] Addition of recombinant AtSUS in the reaction enhanced the conversion efficiency in UGT-SUS coupling system.

Molecule | conversion of rebaudioside A to rebaudioside D ([1]; HV1 alone without AtSUS1, after 24 hours) | conversion of rebaudioside A to rebaudioside D ([1]; UGT-SUS coupling reaction system (with AtSUS1), 6-24 hours) | production of Reb Z from Reb E [2] | production of rebaudioside D from stevioside ([3]; HV1 10 μg in combination with UGT76G1 10 μg and AtSUS1 10 μg) | conversion of stevioside to rebaudioside E ([3]; coupled with AtSUS1, in vitro, 20 hours) | 1,2-19-O-glucose glycosylation activity [4] | 1,3-13-O-glucose glycosylation activity (Reb D from Reb E) [5]
HV1: recombinant UDP-glycosyltransferase polypeptide (SEQ ID NO:6) derived from Hordeum vulgare subsp. vulgare (protein, Hordeum vulgare) MDGNSSSSPLHVVICPWLALGHLLPCLDIAERLASRGHRVSFVSTPRNIARLPPLRPAVAPLVDFVALPLPHVDGLPEGAESTNDVPYDKFELHRKAFDGLAAPFSEFLRAACAEGAGSRPDWLIVDTFHHWAAAAAVENKVPCVMLLLGAATVIAGFARGVSEHAAAAVGKERPAAEAPSFETERRKLMTTQNASGMTVAERYFLTLMRSDLVAIRSCAEWEPESVAALTTLAGKPVVPLGLLPPSPEGGRGVSKEDAAVRWLDAQPAKSVVYVALGSEVPLRAEQVHELALGLELSGARFLWALRKPTDAPDAAVLPPGFEERTRGRGLVVTGWVPQIGVLAHGAVAAFLTHCGWNSTIEGLLFGHPLIMLPISSDQGPNARLMEGRKVGMQVPRDESDGSFRREDVAATVRAVAVEEDGRRVFTANAKKMQEIVADGACHERCIDGFIQQLRSYKA | only partial rebaudioside A was converted | completely converted | Reb Z was produced | rebaudioside D was produced | converted stevioside to rebaudioside E | showed a 1,2-19-O-glucose glycosylation activity | –
UGT76G1: recombinant UDP-glycosyltransferase from stevia (SEQ ID NO:11) (protein, listed as Stevia rebaudiana) MENKTETTVRRRRRIILFPVPFQGHINPILQLANVLYSKGFSITIFHTNFNKPKTSNYPHFTFRFILDNDPQDERISNLPTHGPLAGMRIPIINEHGADELRRELELLMLASEEDEEVSCLITDALWYFAQSVADSLNLRRLVLMTSSLFNFHAHVSLPQFDELGYLDPDDKTRLEEQASGFPMLKVKDIKSAYSNWQILKEILGKMIKQTKASSGVIWNSFKELEESELETVIREIPAPSFLIPLPKHLTASSSSLLDHDRTVFQWLDQQPPSSVLYVSFGSTSEVDEKDFLEIARGLVDSKQSFLWVVRPGFVKGSTWVEPLPDGFLGERGRIVKWVPQQEVLAHGAIGAFWTHSGWNSTLESVCEGVPMIFSDFGLDQPLNARYMSDVLKVGVYLENGWERGEIANAIRRVMVDEEGEYIRQNARVLKQKADVSLMKGGSSYESLESLVSYISSL | – | – | – | – | – | – | showed a 1,3-13-O-glucose glycosylation activity
